{
  "source": "paper PMC2665906",
  "about": "“Structure of mouse IP-10, a chemokine” (Acta Crystallographica Section D: Biological Crystallography, 2008)",
  "molecular_target": "the molecule itself",
  "assay": "crystal structure; hanging-drop vapour diffusion; protein 10 mg/ml in 50 mM Tris-HCl pH 8.0; 0.1 M Tris-HCl pH 8.0, 0.2 M CaCl2, 35% PEG 3350, 289 K; space group C2, four molecules in the asymmetric unit; 2.5 Å",
  "data": [
    {"protein": "Mouse interferon-γ-inducible protein (IP-10) (natural protein, UniProt P17515 22-98, looked up, Mouse IP-10 (CXCL10), cloned and expressed as described by Campanella et al. (2003) with some modifications; The model holds residues 1-68 (A), 1-67 (B), 4-68 (C) and 4-67 (D); No tag is mentioned; C-terminal residues beyond 67/68 were not seen in the electron density; also called mouse IP-10; CXCL10) IPLARTVRCNCIHIDDGPVRMRAIGKLEIIPASLSCPRVEIIATMKKNDEQRCLNPESKTIKNLMKAFSQKRSKRAP", "values": [
      {"measurement": "stoichiometry N", "result": 4}
    ]}
  ]
}
